We go through five molecules from patent EP4682168A1, “ANTI-LIV-1 ANTIBODY AND ANTI-LIV-1 ANTIBODY-DRUG CONJUGATE, AND PHARMACEUTICAL USE THEREOF” (priority 2023, dated 2024).

In experiment [1] the target is T1, LIV-1 expressed on the cell surface of cancer cell lines (human) (UniProt Q13433).
T1 sequence (looked up): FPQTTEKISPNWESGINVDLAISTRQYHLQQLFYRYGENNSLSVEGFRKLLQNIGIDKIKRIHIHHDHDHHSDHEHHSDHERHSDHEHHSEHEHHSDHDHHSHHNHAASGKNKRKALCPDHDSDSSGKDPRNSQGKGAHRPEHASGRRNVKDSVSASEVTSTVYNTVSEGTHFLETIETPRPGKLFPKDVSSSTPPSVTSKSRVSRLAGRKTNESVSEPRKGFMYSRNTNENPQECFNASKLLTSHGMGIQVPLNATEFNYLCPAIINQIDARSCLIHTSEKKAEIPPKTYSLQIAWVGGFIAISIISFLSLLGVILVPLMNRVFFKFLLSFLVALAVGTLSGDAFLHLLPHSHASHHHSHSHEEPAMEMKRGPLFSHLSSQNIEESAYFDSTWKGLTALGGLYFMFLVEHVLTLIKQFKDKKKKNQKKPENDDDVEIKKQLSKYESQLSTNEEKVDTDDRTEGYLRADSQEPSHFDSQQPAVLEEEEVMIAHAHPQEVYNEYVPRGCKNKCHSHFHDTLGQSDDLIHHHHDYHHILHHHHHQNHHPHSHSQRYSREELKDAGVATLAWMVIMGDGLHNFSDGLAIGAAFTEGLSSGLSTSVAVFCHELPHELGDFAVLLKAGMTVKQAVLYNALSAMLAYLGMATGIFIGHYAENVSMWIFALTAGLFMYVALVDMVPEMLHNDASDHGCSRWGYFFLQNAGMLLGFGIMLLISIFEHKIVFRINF
Nature of the experiment: flow cytometry, isotype control, MCF7-Liv1 #7 cells (high exogenous LIV-1). (In general: A flow cytometer gives signals particle by particle.)

Experiment [2] deals with T1, LIV-1 expressed on the cell surface of cancer cell lines (human). Nature of the experiment: flow cytometry, isotype control, HCC 1806 cells (endogenous LIV-1).
The target is the same in experiment [3]. Nature of the experiment: flow cytometry, isotype control, PC-3 cells (endogenous LIV-1).
The target is the same in experiment [4]. Nature of the experiment: flow cytometry, isotype control, MCF7-Liv1 #17 cells (high exogenous LIV-1).
For experiment [5] the target is unchanged. Nature of the experiment: flow cytometry, isotype control, MCF7-Liv1 #12 cells (moderate exogenous LIV-1).
For experiment [6] the target is unchanged. Nature of the experiment: flow cytometry, isotype control, Calu6 cells (endogenous LIV-1).
For experiment [7] the target is unchanged. Nature of the experiment: flow cytometry, 10 µg/mL antibody, MCF7-Liv1 #12 cells (moderate exogenous LIV-1).
Experiment [8] has the same target. Nature of the experiment: flow cytometry, 10 µg/mL antibody, MCF7-Liv1 #7 cells (high exogenous LIV-1).
The target is the same in experiment [9]. Nature of the experiment: flow cytometry, 10 µg/mL antibody, HCC 1806 cells (endogenous LIV-1).
Experiment [10] shares this target. Nature of the experiment: flow cytometry, antibody A against IgG1 isotype control, PC-3 cells.
For experiment [11] the target is unchanged. Nature of the experiment: flow cytometry, 10 µg/mL antibody, PC-3 cells (endogenous LIV-1).
The target is the same in experiment [12]. Nature of the experiment: flow cytometry, antibody A against IgG1 isotype control, MCF7-Liv1 #17 cells.
For experiment [13] the target is unchanged. Nature of the experiment: flow cytometry, 10 µg/mL antibody, MCF7-Liv1 #17 cells (high exogenous LIV-1).
For experiment [14] the target is unchanged. Nature of the experiment: flow cytometry, antibody A against IgG1 isotype control, Calu6 cells.
Experiment [15] has the same target. Nature of the experiment: flow cytometry, 10 µg/mL antibody, Calu6 cells (endogenous LIV-1).
The target is the same in experiment [16]. Nature of the experiment: flow cytometry, antibody A against IgG1 isotype control, MCF7-Liv1 #12 cells.
Experiment [17] has the same target. Nature of the experiment: flow cytometry, antibody A against IgG1 isotype control, HCC 1806 cells.
Experiment [18] has the same target. Nature of the experiment: flow cytometry, antibody A against IgG1 isotype control, MCF7-Liv1 #7 cells.
The target of experiment [19] is human LIV-1 antigen (with a His tag, NP_036451.1, amino acids Phe229-Ile323) (human) (UniProt Q13433). Nature of the experiment: ForteBio (BLI). (In BLI a coated tip is dipped into the sample, and binding shifts an interference pattern.)
The target in experiment [20] is T2, LIV-1 expressed on the cell surface of cancer cell lines (human, UniProt Q13433 29-755).
T2 sequence (looked up): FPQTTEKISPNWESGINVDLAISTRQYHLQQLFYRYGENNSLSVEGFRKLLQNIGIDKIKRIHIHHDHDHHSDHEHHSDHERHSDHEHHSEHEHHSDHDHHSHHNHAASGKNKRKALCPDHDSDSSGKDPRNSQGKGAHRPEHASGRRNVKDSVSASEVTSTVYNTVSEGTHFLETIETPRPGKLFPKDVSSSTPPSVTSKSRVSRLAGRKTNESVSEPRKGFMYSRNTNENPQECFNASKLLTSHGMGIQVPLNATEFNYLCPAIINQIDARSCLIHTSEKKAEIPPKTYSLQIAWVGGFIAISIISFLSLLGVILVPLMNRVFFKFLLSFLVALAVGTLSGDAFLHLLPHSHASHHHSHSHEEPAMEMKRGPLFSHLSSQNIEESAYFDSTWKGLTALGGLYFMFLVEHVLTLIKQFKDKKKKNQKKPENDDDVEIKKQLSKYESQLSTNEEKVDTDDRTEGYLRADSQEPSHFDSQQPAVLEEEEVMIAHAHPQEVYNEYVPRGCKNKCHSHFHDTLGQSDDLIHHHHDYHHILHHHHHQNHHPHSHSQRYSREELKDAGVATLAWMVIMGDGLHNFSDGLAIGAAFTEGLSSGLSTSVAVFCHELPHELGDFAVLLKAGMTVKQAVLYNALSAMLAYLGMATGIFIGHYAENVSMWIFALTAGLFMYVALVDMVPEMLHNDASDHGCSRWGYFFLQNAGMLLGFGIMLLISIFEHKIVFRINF
Nature of the experiment: cell-based or functional assay.

Experiment [21] concerns PC3 mouse subcutaneous tumors. Nature of the experiment: PC3 prostate cancer xenograft efficacy study. Type of experiment: in vivo, CD1 athymic nude mice. The note with it: Single dose of 10 mg/kg, intravenous injection. The procedure:
(§1) Tumor cells grown in the implantation culture of CD1 athymic nude mice: Calu-6 (2.5 × 10^6 cells in 50% matrigel) from ATCC, PC-3 (2.5 × 10^6 cells) from ATCC, and PA-1 (5 × 10^6 cells in 50% matrigel) from ATCC. Tumor cells grown in the implantation culture of NSG mice: HCC1806 (2.5 × 10^6 cells in 50% matrigel) from ATCC and MCF-7 (10 × 10^6 cells; for the in vivo growth of MCF-7, 8.5 µg/mL estradiol was added to the drinking water of female mice) from NCI.
(§2) When the tumors grew to 150 mm^3, the humanized LIV-1 ADC or the non-binding control ADC (1 mg/kg, 3 mg/kg, 6 mg/kg, or 10 mg/kg) was administered by intravenous injection once every four days for a total of four administrations (q4d × 4), by intravenous injection once every week for a total of 2 administrations (qw × 2), or by single intravenous injection. The tumor volume was monitored using a caliper, and the animals were euthanized when the tumor volume reached about 2000 mm^3. Tumor volume plots were continued for each group until one or more animals were euthanized. All animal procedures were conducted in a facility approved by the Association for Assessment and Accreditation of Laboratory Animal Care in accordance with protocols approved by the Institutional Animal Care and Use Committee. TGI was calculated as follows: TGI (%) = 1−[(Td−T0)/(Cd−C0)] × 100% [formula] […]

Experiment [22] relates to PA-1 mouse subcutaneous tumors. Nature of the experiment: PA-1 ovarian cancer xenograft efficacy study. Type of experiment: in vivo, CD1 athymic nude mice. The note with it: Single dose of 3 mg/kg, intravenous injection. Here is the method: as §1, §2

Regarding “non-specific isotype control commercial antibody IgG (BioXCell, BE0297)”, the MFI (RFU) came out at 3410 RFU in [1]; 2180 RFU in experiment [2]; 2840 RFU in [3]; 1510 RFU in experiment [4]; 3120 RFU in experiment [5]; 4440 RFU in experiment [6].

B1: Antibody A (antibody, human IgG1, kappa, V domains shown)
VH: EVQLVQSGAEVKKPGATVKISCKASGLNIEDYYMHWVQQAPGKGLEWMGWIDPENGDTEYAEKFQGRVTITADTSTNTAYMELSSLRSEDTAVYYCTVHNAHYGTWFAYWGQGTTVTVSS
VL: DIVMTQTPLSLSVTPGQPASISCRSSQTLVRSDGNTYLEWYLQKPGQSPQLLIYRVSNRFSGVPDRFSGSGSGTDFTLKISRVEAEDVGVYYCFQGSHVPYTFGGGTKLEIKR
B1: the MFI (RFU) in experiment [7] was 20900 RFU; in experiment [8], 132000 RFU; in [9] it was 4420 RFU; in experiment [11] it was 5660 RFU; in [13], 107000 RFU; in [15], 11100 RFU. Besides, the MFI ratio (MFI of anti-LIV-1/MFI of control antibody) in [10] worked out at 2; in [12], 71.1; in experiment [14], 2.5; in [16], 6.7; in [17], 2; in [18], 38.7.

B2: Antibody A-1 (antibody, human IgG1, kappa, V domains shown)
VH: EVQLVQSGAEVKKPGATVKISCKASGLNIEDYYMHWVQQAPGKGLEWMGWIDPENGDTEYAEKFQGRVTITADTSTDTAYMELSSLRSEDTAVYYCTVHNAHYGTWFAYWGQGTTVTVSS
VL: DIVMTQTPLSLSVTPGQPASISCRSSQTLVRSDGNTYLEWYLQKPGQSPQLLIYRVSNRFSGVPDRFSGSGSGTDFTLKISRVEAEDVGVYYCFQGSHVPYTFGGGTKLEIKR
One may read the Kd as the constant that tells how readily two partners part at equilibrium. The koff is the first-order rate constant of dissociation. A higher koff goes with fast dissociation. In general, kon refers to a measure of how fast the partners come together. Take B2: in [19], the Kd came to 0.0524 nM, the koff was 4.17e-05 s⁻¹ and the on-rate constant (kon) was found to be 796000 M⁻¹ s⁻¹.

B3: A-BrAcMMAE (antibody, human IgG1, kappa, V domains shown)
VH: EVQLVQSGAEVKKPGATVKISCKASGLNIEDYYMHWVQQAPGKGLEWMGWIDPENGDTEYAEKFQGRVTITADTSTNTAYMELSSLRSEDTAVYYCTVHNAHYGTWFAYWGQGTTVTVSS
VL: DIVMTQTPLSLSVTPGQPASISCRSSQTLVRSDGNTYLEWYLQKPGQSPQLLIYRVSNRFSGVPDRFSGSGSGTDFTLKISRVEAEDVGVYYCFQGSHVPYTFGGGTKLEIKR
modifications: MMAE drug-linker (compound 11, bromoacetyl-Val-Cit-PAB-MMAE) on reduced cysteine sulfhydryls; average DAR 3.5-4; positions not given
For B3, in [20], the “IC50 (nM) for inhibition of proliferation, Calu6 cells, CellTiterGlo2” value came out at 11 nM; the “IC50 (nM) for inhibition of proliferation, MCF7-Liv1 #7 cells, CellTiterGlo2” value was found to be 0.03 nM; the “IC50 (nM) for inhibition of proliferation, MCF7-Liv1 #12 cells, CellTiterGlo2” value is 0.031 nM; the “IC50 (nM) for inhibition of proliferation, MCF7-Liv1 #17 cells, CellTiterGlo2” value came to 0.05 nM.

B4: L-McMMAE: Ladiratuzumab antibody L conjugated to MC-MMAE, DAR of 3.5-4; prior-art ADC targeting Liv-1 (conjugate, chains of the INN, looked up)
VH: QVQLVQSGAEVKKPGASVKVSCKASGLTIEDYYMHWVRQAPGQGLEWMGWIDPENGDTEYGPKFQGRVTMTRDTSINTAYMELSRLRSDDTAVYYCAVHNAHYGTWFAYWGQGTLVTVSS
VL: DVVMTQSPLSLPVTLGQPASISCRSSQSLLHSSGNTYLEWYQQRPGQSPRPLIYKISTRFSGVPDRFSGSGSGTDFTLKISRVEAEDVGVYYCFQGSHVPYTFGGGTKVEIK
modifications: MC-MMAE payload
For B4, the “Tumor growth inhibition rate TGI% (day 24 after administration)” value in experiment [21] was 103.92%. For the same molecule, the “Tumor growth inhibition rate TGI% (day 13 after administration)” value in experiment [22] is on record as 26.68%.
